Measured values taken from the supplement of paper PMC9170038.

System: MS2 coat protein
Test: apparent KD of MS2 coat protein; higher = weaker reporter binding
Settings: Eterna round: R107
Method in brief: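 SNAP-549-labelled MS2 coat protein was titrated onto designed RNA switches that had been transcribed on-chip from Illumina sequencing clusters. Amounts doubled from 0.7 or 1.5 nM to 3 µM in 100 mM Tris-HCl pH 7.5, 80 mM KCl, 4 mM MgCl2, with constant ligand or without. Apparent KD is the median per design of normalised cluster binding-curve fits.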

[1] = input ligand: theophylline 20 uM
[2] = input ligand: theophylline 2 mM
[3] = input ligand: tryptophan 2.4 mM

Sequence | apparent KD of MS2 coat protein (input ligand: arginine 13.2 mM) [nM] | apparent KD of MS2 coat protein (input ligand: none) [nM] | apparent KD of MS2 coat protein [1] [nM] | apparent KD of MS2 coat protein [2] [nM] | apparent KD of MS2 coat protein [3] [nM]
CUCUGAGUGAUCGCUCACUCAGAGGCGGAUACCAGCGAGGUCCAUCGCCCUUGGCAGCCGAACAUGAGGAUCACCCAUGUCGGUA [#1 Same State - Theophylline A Attempt #20 (HarryS)] | 8.77 | 10.3 | 13.7 | 12.9 | 8.98
CUCUGGUGCUGAGUGAGUGUCGUGACUGAUACCAGAUGCCUUUACAUCCCUUGGCAGCAGUACAUGAGGAUCACCCAUGUAUUCC [Rireusrama] | 17.2 | – | 33.5 | – | 21.1
CUGCUACAUGAGGAUCACCCAUGUGGAGAUACCAGCCUGAACGAUGGCCCUUGGCAGCUCUUAGCUGGUGAUCAUAUAUUUCAGA [Zazaat] | 25.3 | – | 68.2 | – | 28.2
CUGUACAUCUCGGCCGCCACUGCAACAUGUAGAGAUGUAUAUGUACAUGAGGAUCACCCAUGUGGCAGGACCGGGAGGUGUGCAG [SSTryp B #27] | 167 | 147 | 128 | 206 | 111
CUUACGGGAAACCGACCCAAACAACGGGAAGGAGCGCCAAACAAGGCAGGUAGGUCGCCCACAUGAGGAUCACCCAUGUGUUGGG [Exclusion Arginine A GF 26] | 42.6 | 38 | 47.7 | 42.3 | 45.1
GAACAUAUGGAUACUAUUAUGAGCACAGAAGGAGCGAGCGGAAGCUCAGGUAGGUCGCUGGGUAACAUGAGGAUCACCCAUGUUG [XArg-A sub1] | 18.7 | 19.1 | 24.7 | 25.6 | 20.8
GAACAUGAGGAUCACCCAUGUAAAACAGAUACCAGUGAUAUAAUACACCCUUGGCAGCUGAAGCUGAAUAAUAAUUCCCUCAAGC [Same State Theophylline A GF1] | 17 | – | 20 | – | 15
GACAGAAACUGAAGGAGCGAGGUAAAACGGGAUGAGCAAACAUGAGGAUCACCCAUGUGGCCUCAGGUAGGUCGCAGAAAGAAAC [Exclusion Arginine B GF24] | 180 | 130 | 183 | 123 | 135
GACGAGUAGACGGCCGCCACUAUGCUGCGCAGCCCUAGAAACGCACAUGAGGAUCACCCAUGUCUUAGGACCGGGUCGAACUUAA [theeternabot_sameState_MS2_Trp_B_48] | 47.7 | – | 107 | 96.2 | –
GACGGUACGUCGGCAAAGCCGAUGUGCCAGCGAGGACCGGUACGGCCGCCACUCGUACAUGAGGAUCACCCAUGUCCGGUCCGUC [Omei Trp SS A C v3] | 51.7 | 122 | 108 | 167 | 129
GAGUAGAGGACGGCCGCCACUGAACAUGAGGAUCACCCAUGUCGUGAUCCGUUACCUAGGGUAGAUAGGACCGGGUCAUGUACUC [Exclusion Tryptophan B GF 18] | 37.2 | – | 68.8 | 56.7 | –
GAGUAGUAGACGGCCGCCACUAAACAUGAGGAUCACCCAUGUAGUGAUCCGUUACCUAGCGUAGAUAGGACCGGGUCAGAUAGUA [Exclusion Tryptophan B GF 14] | 21.6 | – | 31.7 | 25.9 | –
GAGUUGUGCUCAGGCCCGACUCGCUGAGAAGGAGCGCACUAAGGUGCAGGUAGGUCGCUCAGGAAUACAUGAGGAUCACCCAUGU [Erlaatti] | 21.7 | 22.9 | 29.9 | 28.5 | 25.2
GAUAACAUGAGGAUCACCCAUGUGGCGUCGCGAGGACCGGUACGGCCGCCACUCGGCAGUUCAACUCGAAUAUAGUGAUCGAAGU [theeternabot_sameState_MS2_Trp_A_16] | 47.6 | – | 182 | 223 | –
GAUGAUAUUGCAGAUACCAGACACAUGAGGAUCACCCAUGUCGCUGGGUCGCUGGGUCGUGUCCCUUGGCAGCUGCGAUAUCAUC [Tibet] | 16.3 | 20.3 | 47.8 | 339 | 21.4
GCACCAGGUACGGAUACCAGCUAUAGGCCCAAUGGGCGACAUGAGGAUCACCCAUGUGAUGGCCCUUGGCAGCUGUACCUGGUGC [SSThB NP+V+V2 #9] | 148 | – | 193 | – | 218
GCACGACAUGAGGAUCACCCAUGUGCAGAUACCAGUAAUGUAUGUUACCCUUGGCAGCUGAGUAGGUCUGGAGGGCUAUAGGUUU [Same State Theophylline A GF13] | 15.4 | 13.9 | 17.2 | 15.6 | 14.1
GCAGUGGGUUAUAAGUAAUAGAAUUCUGAAGGAGCGUGAUGAAACACAGGUAGGUCGCAGGAACAUGAGGAUCACCCAUGUACGG [Same State Arginine A GF20] | 61.4 | 58.7 | 51.6 | 37.6 | 50.3
GCAUCCUAGUCGGCCGCCACUGCGAAUAGGUCCUGAGUGAUCUAACAUGAGGAUCACCCAUGUAGCAGGACCGGGACUAGGAUGC [(Trp1)-(TM)''-(TM)'-(Ms2)-(Trp2)_Design5] | 12.8 | 16.5 | 22.3 | 23 | 17.3

Sequence | apparent KD of MS2 coat protein (input ligand: arginine 13.2 mM) [nM] | apparent KD of MS2 coat protein (input ligand: none) [nM] | apparent KD of MS2 coat protein [1] [nM] | apparent KD of MS2 coat protein [2] [nM] | apparent KD of MS2 coat protein [3] [nM]
GCAUCCUAGUCGGCCGCCACUGCGGAUCCGGUUCUAGAUCCUUAACAUGAGGAUCACCCAUGUAGCAGGACCGGGACUAGGAUGC [(Trp1)-(TM)''-(TM)'-(Ms2)-(Trp2)_Design2] | 91 | 237 | 251 | 324 | 295
GCCAUCGGCGGAAGCCGAUGGGAUACAGAAGGAGCGUAGGAAACUACAGGUAGGUCGCUGGACAUGAGGAUCACCCAUGUGAUAG [SSAA #11] | 19.6 | 24 | 31.9 | 31.6 | 22.7
GCCAUCGGCGGAAGCCGAUGGUAUACAGAAGGAGCGUAGGAAACUACAGGUAGGUCGCUGGACAUGAGGAUCACCCAUGUAAUAG [#27 Same State - Arginine A] | 22.2 | 15.2 | 26.7 | 17.5 | 21.8
GCCGGUACGUCGGCAAAGCCGAUGUGCCAGCGAGGACCGGUACGGCCGCCACUCGUACAUGAGGAUCACCCAUGUCCGGUCCGGC [Omei Trp SS A C v1] | 26.7 | – | 62.5 | 71.8 | –
GCCUAGCAGCGAAGGAGCGAGGUAACUUAAUAAAUAAAUACAAGAGGAUCACCCUUGUUUCCUCAGGUAGGUCGCGCUGCUAGGC [SSAB Alternative Aptamer #2 NP+V+V2] | 18.2 | 22.6 | 25.6 | 20.9 | 23.5
GCGCUAUUUAUUGAUACCAGAUACAGGAAUCACAUGAGGAUCACCCAUGUGGAAUGAAGGAUCCCUUGGCAGCAAUAGUCAAAAU [theeternabot_sameState_MS2_Theo_B_9] | 16.6 | – | 19.6 | – | 19.9
GCUAGGUCUACGGCCGCCACUAGACAUGGGUAAGACAUGAGGAUCACCCAUGUACUACGAGUGCAUAGGACCGGGUAGACCUAGC [SSTB NP+V+V2 #19 +-Same Structure] | 111 | – | 277 | 516 | –
GCUGCCAUACGAAGGAGCGCUGGUGUAAUGAGGCGAACAUGAGGAUCACCCAUGUGGCAUAAGCAGGUAGGUCGCGUAUGGCAGC [EAB #16] | 16.6 | 17.2 | 20.2 | 20.8 | 15.9
GCUGGGUGCGCAAGGACCUGGCGUUGCGAUACCAGCACGGUAACGUGCCCUUGGCAGCGCACAUGAGGAUCACCCAUGUGGUGUG [#1 Exclusion - Theophylline A Attempt #20 (HarryS)] | 96.8 | 230 | 333 | 301 | 162
GCUGUACCAUGAAGGAGCGUCAUGGAUUGCGAAUACACAUGAGGAUCACCCAUGUUUUUAUGACAGGUAGGUCGCAUGGUACAGC [#01 Same State - Arginine B] | 17.8 | 14.5 | 24.5 | 19.2 | 17.1
GCUUCACAUGAGGAUCACCCAUGUCCGGAUACCAGCUCUCCAGACAGCCCUUGGCAGCCGAGCGCCCGAUUAUAUACCCUAGGAG [theeternabot_sameState_MS2_Theo_A_28] | 21.1 | – | 53.7 | – | 27.9
GGAACAUGAGGAUCACCCAUGUCGAGUGGUCGAGGACCGGUACGGCCGCCACUCGACAUUGCUCAUAGGUAUAGCGUGAGAACGC [Same State - Tryptophan 1] | 100 | 326 | 546 | 961 | 618
GGACUAACCAGAAGGAGCGACACGCAGAAACUGCUAUUUCCUCCGCACGAGGAUCACCCGUGUCAGGUAGGUCGCUGGUUAGUCG [ArgBX 28] | 22.1 | 19.5 | 25.4 | 20.3 | 21.4
GGACUAACCAGAAGGAGCGGCGCGCAGAAACUGCAAAAUCCUCCGCACGAGGAUCACCCGUGUCAGGUAGGUCGCUGGUUAGUCG [ArgBX 28] | 18 | 17.7 | 16.2 | 20.8 | 17.3
GGACUAACUCGAAGGAGCGACGCGCAGAAACUGCAAUUUCCUCCACACGAGGAUCACCCGUGUCAGGUAGGUCGCGAGUUAGUCG [ArgBX 29] | 14.9 | 12.8 | 18.6 | 14.7 | 16
GGAGGUACCUGAAGGAGCGACAUGAGGAUCACCCAUGUCUCCCGUUAUGGGAGUUCUUUAGGUCAGGUAGGUCGCAGGUACCUCC [#1 Exclusion - Arginine B Attempt #3 (Inspired by Omei)] | 13.7 | 88.2 | – | – | –
GGAGUCGUCACGGCCGCCACUGCGGUGGUGUGACAUGAGGAUCACCCAUGUUGUCAUGCGGCCCUUAGGACCGGGUGUCGGUUCC [#1 Exclusion - Tryptophan B Attempt #23 (HarryS)] | 57.1 | – | 85.1 | 78.3 | –
GGAUAGGACACGGCCGCCACUAGCUAGGAUACUAGCAACAUUUCCUCACAUGAGGAUCACCCAUGUAGGACCGGGUGUCCUAUCG | 79.9 | – | 145 | 112 | –
GGAUAGGACGGAAGGAGCGACGUGAGGCUAAUGUCCAGUCUUCUACAUGAGGAUCACCCAUGUCAGGUAGGUCGCCGUCCUAUCG [#21 Exclusion - Arginine B] | 30.3 | 28.1 | 51.7 | 40.7 | 41.8
